PMC3155514, “Subunit Interface Residues F129 and H294 of Human RAD51 Are Essential for Recombinase Function”

Columns and labels:
[1] = biological target: T1, HsRAD51 wild type (Homo sapiens, UniProt Q06609 1-339); assay: SPR; ATP (2.5 mM); SPR (Biacore 3000): 20 mM HEPES pH 7.5, 10% glycerol, 1 mM DTT, 1 mM MgCl2, 0.005% P-20, 2.5 mM indicated nucleotide, 150 mM KCl when indicated (text: salt similar to strand exchange), 25 C, 100 nM-1.6 uM protein; conditions: protein: recombinant
[2] = biological target: T2, HsRAD51(F129V) (Homo sapiens, UniProt Q06609 1-339, F129V); assay: SPR; ADP (2.5 mM); SPR (Biacore 3000): 20 mM HEPES pH 7.5, 10% glycerol, 1 mM DTT, 1 mM MgCl2, 0.005% P-20, 2.5 mM indicated nucleotide, 150 mM KCl when indicated (text: salt similar to strand exchange), 25 C, 100 nM-1.6 uM protein; conditions: protein: recombinant; chain copies: 16; label: 5' biotin on strand 1; blunt
[3] = biological target: T1, HsRAD51 wild type; assay: SPR; no nucleotide; SPR (Biacore 3000): 20 mM HEPES pH 7.5, 10% glycerol, 1 mM DTT, 1 mM MgCl2, 0.005% P-20, 2.5 mM indicated nucleotide, 150 mM KCl when indicated (text: salt similar to strand exchange), 25 C, 100 nM-1.6 uM protein; conditions: protein: recombinant
[4] = biological target: T1, HsRAD51 wild type; assay: SPR; ADP (2.5 mM); SPR (Biacore 3000): 20 mM HEPES pH 7.5, 10% glycerol, 1 mM DTT, 1 mM MgCl2, 0.005% P-20, 2.5 mM indicated nucleotide, 150 mM KCl when indicated (text: salt similar to strand exchange), 25 C, 100 nM-1.6 uM protein; conditions: protein: recombinant; chain copies: 10; label: 5' biotin; single strand
[5] = biological target: T2, HsRAD51(F129V); assay: SPR; ADP (2.5 mM); rapid dissociation; SPR (Biacore 3000): 20 mM HEPES pH 7.5, 10% glycerol, 1 mM DTT, 1 mM MgCl2, 0.005% P-20, 2.5 mM indicated nucleotide, 150 mM KCl when indicated (text: salt similar to strand exchange), 25 C, 100 nM-1.6 uM protein; conditions: protein: recombinant; chain copies: 10; label: 5' biotin; single strand
[6] = biological target: T3, HsRAD51(H294V) (Homo sapiens, UniProt Q06609 1-339, H294V); assay: as above; conditions: protein: recombinant; chain copies: 10; label: 5' biotin; single strand
[7] = biological target: T3, HsRAD51(H294V); assay: SPR; no nucleotide; SPR (Biacore 3000): 20 mM HEPES pH 7.5, 10% glycerol, 1 mM DTT, 1 mM MgCl2, 0.005% P-20, 2.5 mM indicated nucleotide, 150 mM KCl when indicated (text: salt similar to strand exchange), 25 C, 100 nM-1.6 uM protein; conditions: protein: recombinant; chain copies: 10; label: 5' biotin; single strand
[8] = chain copies: 16, label: 5' biotin on strand 1, blunt
[9] = chain copies: 10, label: 5' biotin, single strand

T1 sequence (Q06609 whole entry): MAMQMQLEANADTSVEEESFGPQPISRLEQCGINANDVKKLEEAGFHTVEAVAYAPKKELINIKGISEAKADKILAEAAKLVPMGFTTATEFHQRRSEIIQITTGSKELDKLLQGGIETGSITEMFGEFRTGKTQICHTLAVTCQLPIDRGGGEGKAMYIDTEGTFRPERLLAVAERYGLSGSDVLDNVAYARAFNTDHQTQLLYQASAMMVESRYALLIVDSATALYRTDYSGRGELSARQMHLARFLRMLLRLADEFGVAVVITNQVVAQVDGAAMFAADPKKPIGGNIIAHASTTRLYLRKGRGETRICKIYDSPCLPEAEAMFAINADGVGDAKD
T3 sequence (Q06609 whole entry H294V): as the sequence (Q06609 whole entry) above, with H294V counted along it
T2 sequence (Q06609 whole entry F129V): as the sequence (Q06609 whole entry) above, with F129V counted along it

B1: 50 bp dsDNA (dsDNA)
DNA 1: TCGAGAGGGTAAACCACAATTATTGATATAAAATAGTTTTGGGTAGGCGA
DNA 2: TCGCCTACCCAAAACTATTTTATATCAATAATTGTGGTTTACCCTCTCGA
B1 was tested. Which Kd [1, 8] did it give?
Its Kd is 262 nM.

And the Kd [2]?
The Kd was 446 nM.

What about the Kd [3, 8] of the same binder?
Its Kd is 264 nM.

What does the source list for TTTTTTTTTTTTTTTTTTTTTTTTTTTTTTTTTTTTTTTTTTTTTTTTTT (ssDNA) [dT50]?
Kd [1, 9]: 90 nM; Kd [4]: 20 nM; Kd [5]: 54 nM; Kd [6]: 43 nM; Kd [3, 9]: 15 nM; Kd [7]: 28 nM
